Laboratory results: patent US20100216191A1, “Method for Manufacturing a Modified Peptide” (PROCOMCURE BIOTECH GMBH, priority 2007, published 2010)

Tested on: GST-tagged FnbB
Assay: Pull-down with GST-tagged FnbB, proteins from rabbit reticulocyte translation system
Assay type: binding, S. aureus
Details: cell-free protein translation system; GST alone as negative control
From the text: Recombinant proteins were produced from the isolated plasmids from the PPI-partners in a rabbit reticulocyte-based translation system and additionally in E. coli cells. The produced recombinant proteins were used for pull-down and immunoprecipitation experiments.

B1: FLNA: human protein interacting with FnbB, NCBI Protein GI 15779184 (protein)
chain: MPSGKVAQPTITDNKDGTVTVRYAPSEAGLHEMDIRYDNMHIPGSPLQFYVDYVNCGHVTAYGPGLTHGVVNKPATFTVNTKDAGEGGLSLAIEGPSKAEISCTDNQDGTCSVSYLPVLPGDYSILVKYNEQHVPGSPFTARVTGDDSMRMSHLKVGSAADIPINISETDLSLLTATVVPPSGREEPCLLKRLRNGHVGISFVPKETGEHLVHVKKNGQHVASSPIPVVISQSEIGDASRVRVSGQGLHEGHTFEPAEFIIDTRDAGYGGLSLSIEGPSKVDINTEDLEDGTCRVTYCPTEPGNYIINIKFADQHVPGSPFSVKVTGEGRVKESITRRRRAPSVANVGSHCDLSLKIPEISIQDMTAQVTSPSGKTHEAEIVEGENHTYCIRFVPAEMGTHTVSVKYKGQHVPGSPFQFTVGPLGEGGAHKVRAGGPGLERAEAGVPAEFSIWTREAGAGGLAIAVEGPSKAEISFEDRKDGSCGVAYVVQEPGDYEVSVKFNEEHIPDSPFVVPVASPSGDARRLTVSSLQESGLKVNQPASFAVSLNGAKGAIDAKVHSPSGALEECYVTEIDQDKYAVRFIPRENGVYLIDVKFNGTHIPGSPFKIRVGEPGHGGDPGLVSAYGAGLEGGVTGNPAEFVVNTSNAGAGALSVTIDGPSKVKMDCQECPEGYRVTYTPMAPGSYLISIKYGGPYHIGGSPFKAKVTGPRLVSNHSLHETSSVFVDSLTKATCAPQHGAPGPGPADASKVVAKGLGLSKAYVGQKSSFTVDCSKAGNNMLLVGVHGPRTPCEEILVKHVGSRLYSVSYLLKDKGEYTLVVKWGDEHIPGSPYRVVVP
With B1 the “Co-purified with GST-tagged FnbB” value was “could be co-purified”.

B2: HSPC 118: human protein interacting with FnbB, NCBI Protein GI 6841458 (protein)
chain: MVGGGGVGGGLLENANPLIYQRSGERPVTAGEEDEQVPDSIDAREIFDLIRSINDPEHPLTLEELNVVEQVRVQVSDPESTVAVAFTPTIPHCSMATLIGLSIKVKLLRSLPQRFKMDVHITPGTHASEHAVNKQLADKERVAAALENTHLLEVVNQCLSARS
B2 was tested, and the “Co-purified with GST-tagged FnbB” value was “could be co-purified”.
